Assay results taken from patent publication US20220236279A1.

Target: human atypical chemokine receptor 3 (ACKR3) (human), P25106
Assay: binding competition with CXCL12-AF647, flow cytometry
Details: chains peptide; remark: other sources report otherwise

Sequence of human atypical chemokine receptor 3 (ACKR3) (human), P25106 (P25106 whole entry): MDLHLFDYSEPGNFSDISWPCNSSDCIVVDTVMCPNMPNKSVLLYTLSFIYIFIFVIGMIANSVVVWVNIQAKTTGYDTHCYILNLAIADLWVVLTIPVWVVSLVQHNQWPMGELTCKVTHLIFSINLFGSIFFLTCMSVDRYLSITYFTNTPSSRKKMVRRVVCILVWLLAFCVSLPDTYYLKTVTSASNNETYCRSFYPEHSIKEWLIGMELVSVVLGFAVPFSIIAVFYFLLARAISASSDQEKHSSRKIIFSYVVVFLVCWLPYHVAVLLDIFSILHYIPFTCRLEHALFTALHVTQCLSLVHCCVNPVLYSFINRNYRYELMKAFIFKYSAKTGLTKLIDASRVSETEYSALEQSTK

IC50: > 10 µM
Binder: FGGFTGARKSARKLANQ [nociceptin, Q13519 130-146]
